Data taken from publication PMC11574045, “A cofactor-induced repressive type of transcription factor condensation can be induced by synthetic peptides to suppress tumorigenesis” (The EMBO Journal, 2024).

B1: DLX4 (protein, UniProt Q92988 1-240, looked up)
Homeobox protein DLX-4: MTSLPCPLPGRDASKAVFPDLAPVPSVAAAYPLGLSPTTAASPNLSYSRPYGHLLSYPYTEPANPGDSYLSCQQPAALSQPLCGPAEHPQELEADSEKPRLSPEPSERRPQAPAKKLRKPRTIYSSLQLQHLNQRFQHTQYLALPERAQLAAQLGLTQTQVKIWFQNKRSKYKKLLKQNSGGQEGDFPGRTFSVSPCSPPLPSLWDLPKAGTLPTSGYGNSFGAWYQHHSSDVLASPQMM
B2: DDIT3 (protein, UniProt P35638 1-169, looked up)
DNA damage-inducible …: MAAESLPFSFGTLSSWELEAWYEDLQEVLSSDENGGTYVSPPGNEEEESKIFTTLDPASLAWLTEEEPEPAEVTSTSQSPHSPDSSQSSLAQEEEEEDQGRTRKRKQSGHSPARAGKQRMKEKEQENERKVAQLAEENERLKQEIERLTREVEATRRALIDRMVNLHQA
B3: DDX17 (protein, UniProt Q92841 1-729, looked up)
Probable ATP-dependent RNA …: MPTGFVAPILCVLLPSPTREAATVASATGDSASERESAAPAAAPTAEAPPPSVVTRPEPQALPSPAIRAPLPDLYPFGTMRGGGFGDRDRDRDRGGFGARGGGGLPPKKFGNPGERLRKKKWDLSELPKFEKNFYVEHPEVARLTPYEVDELRRKKEITVRGGDVCPKPVFAFHHANFPQYVMDVLMDQHFTEPTPIQCQGFPLALSGRDMVGIAQTGSGKTLAYLLPAIVHINHQPYLERGDGPICLVLAPTRELAQQVQQVADDYGKCSRLKSTCIYGGAPKGPQIRDLERGVEICIATPGRLIDFLESGKTNLRRCTYLVLDEADRMLDMGFEPQIRKIVDQIRPDRQTLMWSATWPKEVRQLAEDFLRDYTQINVGNLELSANHNILQIVDVCMESEKDHKLIQLMEEIMAEKENKTIIFVETKRRCDDLTRRMRRDGWPAMCIHGDKSQPERDWVLNEFRSGKAPILIATDVASRGLDVEDVKFVINYDYPNSSEDYVHRIGRTARSTNKGTAYTFFTPGNLKQARELIKVLEEANQAINPKLMQLVDHRGGGGGGGGRSRYRTTSSANNPNLMYQDECDRRLRGVKDGGRRDSASYRDRSETDRAGYANGSGYGSPNSAFGAQAGQYTYGQGTYGAAAYGTSSYTAQEYGAGTYGASSTTSTGRSSQSSSQQFSGIGRSGQQPQPLMSQQFAQPPGATNMIGYMGQTAYQYPPPPPPPPPSRK
B4: DMP-1 (protein, UniProt Q9Y222 1-760, looked up)
Cyclin-D-binding Myb-like …: MSTVEEDSDTVTVETVNSVTLTQDTEGNLILHCPQNEADEIDSEDSIEPPHKRLCLSSEDDQSIDDSTPCISVVALPLSENDQSFEVTMTATTEVADDEVTEGTVTQIQILQNEQLDEISPLGNEEVSAVSQAWFTTKEDKDSLTNKGHKWKQGMWSKEEIDILMNNIERYLKARGIKDATEIIFEMSKDERKDFYRTIAWGLNRPLFAVYRRVLRMYDDRNHVGKYTPEEIEKLKELRIKHGNDWATIGAALGRSASSVKDRCRLMKDTCNTGKWTEEEEKRLAEVVHELTSTEPGDIVTQGVSWAAVAERVGTRSEKQCRSKWLNYLNWKQSGGTEWTKEDEINLILRIAELDVADENDINWDLLAEGWSSVRSPQWLRSKWWTIKRQIANHKDVSFPVLIKGLKQLHENQKNNPTLLENKSGSGVPNSNTNSSVQHVQIRVARLEDNTAISSSPMAALQIPVQITHVSSADSPATVDSETITLNSGTLQTFEILPSFHLQPTGTPGTYLLQTSSSQGLPLTLTASPTVTLTAAAPASPEQIIVHALSPEHLLNTSDNVTVQCHTPRVIIQTVATEDITSSISQAELTVDSDIQSSDFPEPPDALEADTFPDEIHHPKMTVEPSFNDAHVSKFSDQNSTELMNSVMVRTEEEISDTDLKQEESPSDLASAYVTEGLESPTIEEQVDQTIDDETILIVPSPHGFIQASDVIDTESVLPLTTLTDPILQHHQEESNIIGSSLGSPVSEDSKDVEDLVNCH
B5: DLX2 (protein, UniProt Q07687 1-328, looked up)
Homeobox protein DLX-2: MTGVFDSLVADMHSTQIAASSTYHQHQQPPSGGGAGPGGNSSSSSSLHKPQESPTLPVSTATDSSYYTNQQHPAGGGGGGGSPYAHMGSYQYQASGLNNVPYSAKSSYDLGYTAAYTSYAPYGTSSSPANNEPEKEDLEPEIRIVNGKPKKVRKPRTIYSSFQLAALQRRFQKTQYLALPERAELAASLGLTQTQVKIWFQNRRSKFKKMWKSGEIPSEQHPGASASPPCASPPVSAPASWDFGVPQRMAGGGGPGSGGSGAGSSGSSPSSAASAFLGNYPWYHQTSGSASHLQATAPLLHPTQTPQPHHHHHHHGGGGAPVSAGTIF
B6: DBX2 (protein, UniProt Q6ZNG2 1-339, looked up)
Homeobox protein DBX2: MLPSAVAAHAGAYWDVVASSALLNLPAAPGFGNLGKSFLIENLLRVGGAPTPRLQPPAPHDPATALATAGAQLRPLPASPVPLKLCPAAEQVSPAGAPYGTRWAFQVLSPSADSARLPGRAPGDRDCTFQPSAPAPSKPFLLSTPPFYSACCGGSCRRPASSTAFPREESMLPLLTQDSNSKARRGILRRAVFSEDQRKALEKMFQKQKYISKTDRKKLAINLGLKESQVKIWFQNRRMKWRNSKEKEVLSNRCIQEVGLQEDPLSRSALGFPSPCPSIWDVPQQHSSPRWRENSPEPSERLIQESSGAPPPEANSLQGALYLCSEEEAGSKGVLTGAV
B7: ACTL6B (protein, UniProt Q99MR0 1-426, looked up)
Actin-like protein 6B: MSGGVYGGDEVGALVFDIGSFSVRAGYAGEDCPKADFPTTVGLLAAEEGGGLELEGEKEKKGKIFHIDTNALHVPRDGAEVMSPLKNGMIEDWECFRAILDHTYSKHVKSEPNLHPVLMSEAPWNTRAKREKLTELMFEQYNIPAFFLCKTAVLTAFANGRSTGLVLDSGATHTTAIPVHDGYVLQQGIVKSPLAGDFISMQCRELFQEMAIDIIPPYMIAAKEPVREGAPPNWKKKEKLPQVSKSWHNYMCNEVIQDFQASVLQVSDSPYDEQVAAQMPTVHYEMPNGYNTDYGAERLRIPEGLFDPSNVKGLSGNTMLGVGHVVTTSIGMCDIDIRPGLYGSVIVTGGNTLLQGFTDRLNRELSQKTPPSMRLKLIASNSTMERKFSPWIGGSILASLGTFQQMWISKQEYEEGGKQCVERKCP
B8: DDX20 (protein, UniProt Q9UHI6 1-824, looked up)
Probable ATP-dependent RNA …: MAAAFEASGALAAVATAMPAEHVAVQVPAPEPTPGPVRILRTAQDLSSPRTRTGDVLLAEPADFESLLLSRPVLEGLRAAGFERPSPVQLKAIPLGRCGLDLIVQAKSGTGKTCVFSTIALDSLVLENLSTQILILAPTREIAVQIHSVITAIGIKMEGLECHVFIGGTPLSQDKTRLKKCHIAVGSPGRIKQLIELDYLNPGSIRLFILDEADKLLEEGSFQEQINWIYSSLPASKQMLAVSATYPEFLANALTKYMRDPTFVRLNSSDPSLIGLKQYYKVVNSYPLAHKVFEEKTQHLQELFSRIPFNQALVFSNLHSRAQHLADILSSKGFPAECISGNMNQNQRLDAMAKLKHFHCRVLISTDLTSRGIDAEKVNLVVNLDVPLDWETYMHRIGRAGRFGTLGLTVTYCCRGEEENMMMRIAQKCNINLLPLPDPIPSGLMEECVDWDVEVKAAVHTYGIASVPNQPLKKQIQKIERTLQIQKAHGDHMASSRNNSVSGLSVKSKNNTKQKLPVKSHSECGIIEKATSPKELGCDRQSEEQMKNSVQTPVENSTNSQHQVKEALPVSLPQIPCLSSFKIHQPYTLTFAELVEDYEHYIKEGLEKPVEIIRHYTGPGDQTVNPQNGFVRNKVIEQRVPVLASSSQSGDSESDSDSYSSRTSSQSKGNKSYLEGSSDNQLKDSESTPVDDRISLEQPPNGSDTPNPEKYQESPGIQMKTRLKEGASQRAKQSRRNLPRRSSFRLQTEAQEDDWYDCHREIRLSFSDTYQDYEEYWRAYYRAWQEYYAAASHSYYWNAQRHPSWMAAYHMNTIYLQEMMHSNQ

Test system: HEK293FT cells transfected with TF library
Experiment: Screening of TF condensates based on fluorescent puncta
Type: cell-based
Conditions: Figure 1B numerical data; TF library screen, one value per transcriptional factor
Method: TF plasmids were automatically added to black-walled 384-well plates at 80 ng per well to reach a final concentration of 1.6 μg/ml. Polyethylenimine (PEI, Sigma) was then added to the plasmid-loaded plates at 240 ng per well (4.8 μg/ml). Subsequently, HEK293FT cells were seeded into the plate at 2000 cells per well. After 60 h, cells were cultured in medium with or without glucose for 12 h, and then fixed with 4% paraformaldehyde (PFA) at room temperature for 30 min. After three washes with PBS, fixed cells were permeabilized with 0.05% Triton X-100 for 15 min. Thereafter, cells were blocked with 5% BSA for 1 h, and then incubated overnight with anti-Flag (Sigma F3165, 1:200) and anti-GAL4 (Abbkine ABP57232, 1:200) primary antibodies at 4 °C. The cells were then gently washed with PBS, followed by being incubated with Alexa Fluor Plus 488 goat anti-mouse IgG secondary antibody (Thermo A32723, 1:400) or Alexa Fluor Plus 488 goat anti-rabbit IgG secondary antibody (Thermo A32731, 1:400) for 1 h. The plates were kept at 4 °C in the dark before being analyzed using an Opera System (Perkin Elmer). Fifty random fields per well were scanned and analyzed using the Columbus Plus Image Data Storage and Analysis System (Perkin Elmer).

Molecule	Z score of condensed fraction
B1	-0.356
B2	-1.245
B3	0.6597
B4	2.192
B5	0.04096
B6	2.182
B7	0.5544
B8	1.184
